Measured values published in the supplement of paper PMC7125110.
± gives the standard error. For some of these results: This sample holds only a part of the variants without activity.

B1: glmS ribozyme (parent)
chain: AUAAAAGCGCCAGAACUACAGAAAUGUAGUUGACGAGGAGGAGGUUUAUCGAAUUUUCGGCGGAUGCCUCCAAA

Tests used:
Conditions in all cases: with glucosamine-6-phosphate
glucosamine-6-phosphate [1] = variants of: B1; assay: kcat; higher = faster cleavage; RNA array
Procedure, shortened: (§1)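 The measurements used barcoded ribozyme variants on sequenced MiSeq chips, transcribed in situ by E. coli RNA polymerase and tracked at 37 °C with a hybridised Cy3 probe. Glucosamine-6-phosphate, 40 μM to 10 mM in HEPES/KCl/Mg(OAc)2 buffer, was flowed in while tiles were imaged over ~14 h. Baseline-normalised signals, also normalised to non-cleaving reference variants, gave per-tile medians that were fit to one- or two-exponential decays for kobs. kcat and KM resulted from weighted Michaelis–Menten fits across concentrations.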

glucosamine-6-phosphate [2] = variants of: B1; assay: KM; higher = weaker cofactor use; RNA array
Procedure, shortened: as §1

glucosamine-6-phosphate [3] = variants of: B1; assay: self-cleavage kobs at 40 uM GlcN6P; higher = faster cleavage; RNA array
Procedure, shortened: as §1

glucosamine-6-phosphate [4] = variants of: B1; assay: self-cleavage kobs at 160 uM GlcN6P; higher = faster cleavage; RNA array
Procedure, shortened: as §1

glucosamine-6-phosphate [5] = variants of: B1; assay: self-cleavage kobs at 10000 uM GlcN6P; higher = faster cleavage; RNA array
Procedure, shortened: as §1

glucosamine-6-phosphate [6] = variants of: B1; assay: self-cleavage kobs at 2500 uM GlcN6P; higher = faster cleavage; RNA array
Procedure, shortened: as §1

glucosamine-6-phosphate [7] = variants of: B1; assay: self-cleavage kobs at 640 uM GlcN6P; higher = faster cleavage; RNA array
Procedure, shortened: as §1

Row | Variant | kcat (glucosamine-6-phosphate [1]) [s⁻¹] | KM (glucosamine-6-phosphate [2]) [µM] | self-cleavage kobs at 40 uM GlcN6P (glucosamine-6-phosphate [3]) [s⁻¹] | self-cleavage kobs at 160 uM GlcN6P (glucosamine-6-phosphate [4]) [s⁻¹] | self-cleavage kobs at 10000 uM GlcN6P (glucosamine-6-phosphate [5]) [s⁻¹] | self-cleavage kobs at 2500 uM GlcN6P (glucosamine-6-phosphate [6]) [s⁻¹] | self-cleavage kobs at 640 uM GlcN6P (glucosamine-6-phosphate [7]) [s⁻¹]
1 | AUAAAAGCGCCACAACUACAGAAAUGUAGUUGACGAGGAGGAGGUUUAUCGACUUUUCGGCGGAUGCCUCCAAA [G13C A53C] | 2.72e-05 ± 1.4e-06 | 802 ± 260 | < 1e-05 | < 1e-05 | 2.49e-05 ± 1.2e-05 |  | 
2 | AUAAAAGCGCCACAACUACAGAAAUGUAGUUGACGAGGAGGAGGUUUAUCGAAUUAUCGGCGGAUGCCUCCAAA [G13C U56A] | 0.000106 ± 6.7e-06 | 3410 ± 530 |  |  | 7.93e-05 ± 9.5e-06 | 4.38e-05 ± 7.3e-06 | 
3 | AUAAAAGCGCCAUGACUACAGAAAUGUAGUUGACGAGGAGGAGGUUUAUCGAAUUUUCGGCGGAUGCCUCCAAA [G13U A14G] | 0.00536 ± 0.0022 |  | 0.000124 ± 2e-05 | 0.00019 ± 7.3e-05 | 0.00495 ± 0.00073 | 0.00171 ± 0.00049 | 0.00104 ± 0.00019
4 | AUAAAAGCGCCACAACUACAGAAAUGUAGUUAACGAGGAGGAGGUUUAUCGAAUUUUCGGCGGAUGCCUCCAAA [G13C G32A] | 0.00943 ± 0.0032 | 3620 ± 1600 | 0.000142 ± 1.5e-05 | 0.000338 ± 6.2e-05 | 0.00781 ± 0.00085 | 0.00305 ± 0.00052 | 0.00124 ± 0.00016
5 | AUAAAAGCGCCACAACUACAGAAAUGUAGUUUACGAGGAGGAGGUUUAUCGAAUUUUCGGCGGAUGCCUCCAAA [G13C G32U] | 0.000576 ± 4.2e-05 | 3170 ± 470 |  |  | 0.000436 ± 7.7e-05 | 0.000258 ± 5.7e-05 | 8.34e-05 ± 4.1e-05
6 | AUAAAAGCGCCACAACUACAGAAAUGUAGUUGACGAGGAGUAGGUUUAUCGAAUUUUCGGCGGAUGCCUCCAAA [G13C G41U] | 3.06e-05 ± 9.2e-06 |  |  |  |  |  | 
7 | AUAAAAGCGCCACAACUACAGAAAUGUAGUGGACGAGGAGGAGGUUUAUCGAAUUUUCGGCGGAUGCCUCCAAA [G13C U31G] | 0.000196 ± 4.5e-06 | 1560 ± 90 |  |  | 0.00017 ± 2.2e-05 | 0.000119 ± 1.8e-05 | 5.79e-05 ± 1.2e-05
8 | AUAAAAGCGCCAUAACUACAGAAAUGUAGUUGACGAGGUGGAGGUUUAUCGAAUUUUCGGCGGAUGCCUCCAAA [G13U A39U] | 0.0016 ± 0.0003 | 4770 ± 1400 | 3.33e-05 ± 1.6e-05 | 4.9e-05 ± 1.9e-05 | 0.00112 ± 0.00016 | 0.000513 ± 8.1e-05 | 0.000197 ± 3.6e-05
9 | AUAAAAGCGCCACAAGUACAGAAAUGUAGUUGACGAGGAGGAGGUUUAUCGAAUUUUCGGCGGAUGCCUCCAAA [G13C C16G] | 0.000162 ± 5.6e-05 |  |  |  | 0.000108 ± 1.6e-05 | 4.43e-05 ± 1.5e-05 | 4.75e-05 ± 2.1e-05
10 | AUAAAAGCGCCAUAACUACAGAAAUGUAGUUGACGAGGAGGCGGUUUAUCGAAUUUUCGGCGGAUGCCGCCAAA [G13U A42C U69G] | 0.00178 ± 0.00081 |  | 8.5e-05 ± 2.1e-05 |  | 0.00141 ± 0.00021 | 0.000852 ± 0.00026 | 0.00028 ± 5.9e-05
11 | AUAAAAGCGCCAUACCUACAGAAAUGUAGUUGACGAGGAGGAGGUUUAUCGAAUUUUCGGCGGAUGCCUCCAAA [G13U A15C] | 0.000268 ± 2.8e-05 | 2790 ± 550 |  |  | 0.000202 ± 2.4e-05 | 0.000142 ± 1.9e-05 | 4.71e-05 ± 7.8e-06
12 | AUAAAAGCGCCACAACUACAGAAAUGUAGUUGACGAGGAGGAGGUUUAUCGAAUUUUAGGUGGAUGCCUGCAAA [G13C C58A C61U C70G] | 1.31e-05 ± 2.2e-06 |  |  |  |  |  | 
13 | AUAAAAGCGCCACAACUACAGAAAUGUAGUUGACGAGGAGGAGGUUUAUCGAAUCUUCGGCGGAUGCCUCCAAA [G13C U55C] | 9.82e-05 ± 8.2e-06 | 1500 ± 410 | < 1e-05 |  | 8.8e-05 ± 1.5e-05 | 5.66e-05 ± 1.3e-05 | 3.6e-05 ± 1.6e-05
14 | AUAAAAGCGCCACAACUACAGAAAUGUAGUUGACGAGGAGGAGGUUUAUCGAAUGUUCGGCGGAUGCCUCCAAA [G13C U55G] | 0.000125 ± 2.7e-05 |  |  |  | 9.6e-05 ± 1.2e-05 | 6.8e-05 ± 9.4e-06 | 
15 | AUAAAAGCGCCACAACUACAGAAAUGUAGUUGACGAGGAGGAGGUUUAUCGAAUUUUCGGCGGAUGCCUGCAAA [G13C C70G] | 2.09e-05 ± 5.8e-06 |  |  |  |  |  | 
16 | AUAAAAGCGCCACAACUACAGAAAUGUAGUUGACGAGGAGGAGGUUUAUCGAAUUUUAGGCGGAUGCCUCCAAA [G13C C58A] | 0.000354 ± 6.9e-05 | 7610 ± 2700 |  |  | 0.000203 ± 1.3e-05 | 8e-05 ± 9.7e-06 | 4.16e-05 ± 9.2e-06
17 | AUAAAAGCGCCACAACUACAGAAAUGUAGUUGACGAGGAGGAGGUUUAUCGAAUUUUCGGCGGAUGCAUCCAAA [G13C C68A] | 1.1e-05 ± 2.3e-06 |  |  |  |  |  | 
18 | AUAAAAGCGCCAUGACUACAGAAAUGUAGUUGACGAGGAGGAGGUUUAUCGAAUUUUCGGUGGAUGCCUGCAAA [G13U A14G C61U C70G] | 1.9e-05 ± 5.3e-06 |  |  |  |  |  | 
19 | AUAAAAGCGCCACAACUACAGAAAUGUAGUUGACGAGGAGGAUGUUUAUCGAAUUUUCGGCGGAUGACUCCAAA [G13C G43U C67A] | 6.76e-05 ± 3.4e-05 |  |  |  |  |  | 
20 | AUAAAAGCGCCACAACUACAGAAAUGUAGGUGACGAGGAGGAGGUUUAUCGAAUUUUCGGCGGAUGCCUCCAAA [G13C U30G] | 3.93e-05 ± 3.7e-06 | 2100 ± 830 |  |  | 3.23e-05 ± 9.3e-06 |  | 
